The test addresses CX3CR1 (UniProt P49238).

The text below walks through data of paper PMC6628566.

UniProt P49238, sequence (P49238 whole entry): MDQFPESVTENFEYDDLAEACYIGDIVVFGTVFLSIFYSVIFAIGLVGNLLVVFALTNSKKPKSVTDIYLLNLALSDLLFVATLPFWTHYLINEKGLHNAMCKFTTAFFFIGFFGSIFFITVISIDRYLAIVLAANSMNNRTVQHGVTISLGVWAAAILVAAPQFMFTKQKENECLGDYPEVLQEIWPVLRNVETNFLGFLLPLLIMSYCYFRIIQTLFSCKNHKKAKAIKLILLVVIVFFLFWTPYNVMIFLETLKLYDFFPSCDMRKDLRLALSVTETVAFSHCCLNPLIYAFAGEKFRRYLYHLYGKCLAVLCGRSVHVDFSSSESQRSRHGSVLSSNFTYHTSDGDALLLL

In the case of “chemokine domain-only peptide of fractalkine (ckFKN) (domain or fragment)”, the fold decrease in receptor binding affinity against sFKN turned out to be 10 fold.
